B1: ARC1621 (mixed)
RNA: ACAGGCAAGUAAUUGGGGAGUGCGGGCGGGGUGU
modifications: 2'-OMe C,U and G16,G17,G24,G25,G30,G31; other A,G deoxy; PS 3-4,4-5; 3'-idT [PS 3-4,4-5; 2'-OMe at 2,6,10,13,14,16,17,21,23,24,25,27,30,31,32,34; other A,G deoxy; 3'-inverted dT at 35]
B2: ARC1464 (mixed)
RNA: ACAGGCAAGUAAUUGGGGAGUGCGGGCGGGGUGU
modifications: deoxy A,G; 2'-OMe C,U; PS 31-32; 3'-idT [2'-OMe C,U at 2,6,10,13,14,21,23,27,32,34; deoxy A,G elsewhere; PS 31-32 (N = PS linkage, left out); 3'-inverted dT at 35]
B3: ARC1428 (mixed)
RNA: ACAGGCAAGUAAUUGGGGAGUGCGGGCGGGGUGU
modifications: 2'-OMe C,U and A3; other A,G deoxy; 3'-idT
B4: ARC1459 (mixed)
RNA: ACAGGCAAGUAAUUGGGGAGUGCGGGCGGGGUGU
modifications: deoxy A,G; 2'-OMe C,U; PS 23-24; 3'-idT [PS linkage 23-24; 2'-OMe C,U at 2,6,10,13,14,21,23,27,32,34; all A,G 2'-deoxy; 3'-inverted dT at 35]
B5: ARC1448 (mixed)
RNA: ACAGGCAAGUAAUUGGGGAGUGCGGGCGGGGUGU
modifications: 2'-OMe C,U and G30; other A,G deoxy; 3'-idT
B6: ARC1458 (mixed)
RNA: ACAGGCAAGUAAUUGGGGAGUGCGGGCGGGGUGU
modifications: deoxy A,G; 2'-OMe C,U; PS 17-18; 3'-idT [PS linkage 17-18; 2'-OMe C,U at 2,6,10,13,14,21,23,27,32,34; all A,G 2'-deoxy; 3'-inverted dT at 35]
B7: ARC1454 (mixed)
RNA: ACAGGCAAGUAAUUGGGGAGUGCGGGCGGGGUGU
modifications: deoxy A,G; 2'-OMe C,U; PS 4-5; 3'-idT [PS linkage 4-5; 2'-OMe C,U at 2,6,10,13,14,21,23,27,32,34; all A,G 2'-deoxy; 3'-inverted dT at 35]
B8: ARC1541 (mixed)
RNA: ACAGGCAAGUAAUUGGGGAGUGCGGGCGGGGUGU
modifications: 2'-OMe C,U and G18,A19,G20,G22; other A,G deoxy; 3'-idT
B9: ARC1432 (mixed)
RNA: ACAGGCAAGUAAUUGGGGAGUGCGGGCGGGGUGU
modifications: 2'-OMe C,U and A8; other A,G deoxy; 3'-idT
B10: ARC1433 (mixed)
RNA: ACAGGCAAGUAAUUGGGGAGUGCGGGCGGGGUGU
modifications: 2'-OMe C,U and G9; other A,G deoxy; 3'-idT
B11: ARC1446 (mixed)
RNA: ACAGGCAAGUAAUUGGGGAGUGCGGGCGGGGUGU
modifications: 2'-OMe C,U and G28; other A,G deoxy; 3'-idT
B12: ARC1461 (mixed)
RNA: ACAGGCAAGUAAUUGGGGAGUGCGGGCGGGGUGU
modifications: deoxy A,G; 2'-OMe C,U; PS 25-26; 3'-idT [PS linkage 25-26; 2'-OMe C,U at 2,6,10,13,14,21,23,27,32,34; all A,G 2'-deoxy; 3'-inverted dT at 35]
B13: ARC1449 (mixed)
RNA: ACAGGCAAGUAAUUGGGGAGUGCGGGCGGGGUGU
modifications: 2'-OMe C,U and G31; other A,G deoxy; 3'-idT
B14: ARC1427 (mixed)
RNA: ACAGGCAAGUAAUUGGGGAGUGCGGGCGGGGUGU
modifications: 2'-OMe C,U and A1; other A,G deoxy; 3'-idT
B15: ARC1443 (mixed)
RNA: ACAGGCAAGUAAUUGGGGAGUGCGGGCGGGGUGU
modifications: 2'-OMe C,U and G24; other A,G deoxy; 3'-idT
B16: ARC1437 (mixed)
RNA: ACAGGCAAGUAAUUGGGGAGUGCGGGCGGGGUGU
modifications: 2'-OMe C,U and G16; other A,G deoxy; 3'-idT
B17: ARC1442 (mixed)
RNA: ACAGGCAAGUAAUUGGGGAGUGCGGGCGGGGUGU
modifications: 2'-OMe C,U and G22; other A,G deoxy; 3'-idT
B18: ARC1456 (mixed)
RNA: ACAGGCAAGUAAUUGGGGAGUGCGGGCGGGGUGU
modifications: deoxy A,G; 2'-OMe C,U; PS 15-16; 3'-idT [PS linkage 15-16; 2'-OMe C,U at 2,6,10,13,14,21,23,27,32,34; all A,G 2'-deoxy; 3'-inverted dT at 35]
B19: ARC1441 (mixed)
RNA: ACAGGCAAGUAAUUGGGGAGUGCGGGCGGGGUGU
modifications: 2'-OMe C,U and G20; other A,G deoxy; 3'-idT
B20: ARC1457 (mixed)
RNA: ACAGGCAAGUAAUUGGGGAGUGCGGGCGGGGUGU
modifications: deoxy A,G; 2'-OMe C,U; PS 16-17; 3'-idT [PS linkage 16-17; 2'-OMe C,U at 2,6,10,13,14,21,23,27,32,34; all A,G 2'-deoxy; 3'-inverted dT at 35]
B21: ARC1445 (mixed)
RNA: ACAGGCAAGUAAUUGGGGAGUGCGGGCGGGGUGU
modifications: 2'-OMe C,U and G26; other A,G deoxy; 3'-idT
B22: ARC1450 (mixed)
RNA: ACAGGCAAGUAAUUGGGGAGUGCGGGCGGGGUGU
modifications: 2'-OMe C,U and G33; other A,G deoxy; 3'-idT
B23: ARC1447 (mixed)
RNA: ACAGGCAAGUAAUUGGGGAGUGCGGGCGGGGUGU
modifications: 2'-OMe C,U and G29; other A,G deoxy; 3'-idT
B24: ARC1463 (mixed)
RNA: ACAGGCAAGUAAUUGGGGAGUGCGGGCGGGGUGU
modifications: deoxy A,G; 2'-OMe C,U; PS 30-31; 3'-idT [2'-OMe C,U at 2,6,10,13,14,21,23,27,32,34; deoxy A,G elsewhere; PS 30-31 (N = PS linkage, left out); 3'-inverted dT at 35]
B25: ARC1434 (mixed)
RNA: ACAGGCAAGUAAUUGGGGAGUGCGGGCGGGGUGU
modifications: 2'-OMe C,U and A11; other A,G deoxy; 3'-idT

biological target: IL-23 (human, p19/p40 heterodimer) (Homo sapiens, UniProt Q9NPF7;P29460 SEQ:20-189,SEQ:23-328); experiment: filter; DPBS Ca Mg; conditions: tags: R&D Systems, carrier free
Sequence (Q9NPF7 20-189, chain 1 of 2): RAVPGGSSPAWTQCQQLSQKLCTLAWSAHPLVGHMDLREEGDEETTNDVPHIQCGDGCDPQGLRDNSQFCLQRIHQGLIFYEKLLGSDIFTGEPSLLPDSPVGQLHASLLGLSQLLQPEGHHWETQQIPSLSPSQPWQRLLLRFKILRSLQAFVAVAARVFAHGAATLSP
Sequence (P29460 23-328, chain 2 of 2): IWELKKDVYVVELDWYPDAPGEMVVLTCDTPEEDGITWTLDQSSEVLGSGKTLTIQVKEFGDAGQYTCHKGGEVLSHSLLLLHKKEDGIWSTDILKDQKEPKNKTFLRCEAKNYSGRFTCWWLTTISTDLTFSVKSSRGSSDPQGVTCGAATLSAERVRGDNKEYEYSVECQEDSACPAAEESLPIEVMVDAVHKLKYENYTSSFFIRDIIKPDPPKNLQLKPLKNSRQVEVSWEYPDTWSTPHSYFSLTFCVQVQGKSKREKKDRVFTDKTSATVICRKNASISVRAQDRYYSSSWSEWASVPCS
Experimental: The dot blot binding assay previously described was used to characterize the relative potency of the majority of the aptamers synthesized. For KD determination, chemically synthesized aptamers were purified using denaturing polyacrylamide gel electrophoresis, 5′end labeled with γ-³²P ATP and were tested for direct binding to full human IL-23. An 8 point protein titration was used in the dot blot binding assay (either {100 nM, 30 nM, 10 nM, 3 nM, 1 nM, 300 pM, 100 pM, 0 pM} or {10 nM, 3 nM, 1 nM, 300 pM, 100 pM, 30 pM, 10 pM, 0 pM}) in Dulbecco's PBS (with Mg⁺⁺ and Ca⁺⁺) with 0.1 mg/mL BSA. KD values were calculated by fitting the equation y=(max/(1+K/protein))+yint using KaleidaGraph (KaleidaGraph v. 3.51, Synergy Software). Sequences of the ARC979 derivatives synthesized, purified and assayed for binding to IL-23 as well as the results of the protein binding characterization are tabulated below in Tables 29 and 30.

Binder	Kd [nM]
B1	0.5
B2	2.4
B3	1.8
B4	4
B5	2.3
B6	2.9
B7	2.7
B8	3.9
B9	3.8
B10	2.8
B11	2.1
B12	3.7
B13	2.6
B14	3
B15	2
B16	3.9
B17	2.8
B18	3.2
B19	2.7
B20	3
B21	2.8
B22	2.6
B23	2.5
B24	3.6
B25	3

From US20060193821, “Aptamers to the human IL-12 cytokine family and their use as autoimmune disease therapeutics” (published 2006)
